Measured values published in publication doi:10.1101/338061.

T1: MBD1 MBD (Homo sapiens, UniProt Q9UIS9 1-77)
T1 sequence: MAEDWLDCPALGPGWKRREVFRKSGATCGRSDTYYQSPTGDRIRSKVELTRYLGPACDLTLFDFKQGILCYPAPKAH


Legend:
[1] = biological target: MBD3 MBD (crystallization) (Homo sapiens, UniProt O95983 1-71); assay: crystal structure
[2] = biological target: MeCP2 MBD (Homo sapiens, UniProt P51608 80-164); assay: ITC
[3] = biological target: MBD2 MBD (Homo sapiens, UniProt Q9UBB5 143-220); assay: ITC
[4] = biological target: MBD3 MBD (Homo sapiens, UniProt O95983 1-71); assay: ITC
Sequence of MBD3 MBD (O95983 1-71): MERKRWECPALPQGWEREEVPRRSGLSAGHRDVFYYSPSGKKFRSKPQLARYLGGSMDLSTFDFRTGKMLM

[5] = biological target: MBD2 MBD R166A (Homo sapiens, UniProt Q9UBB5 143-220, R166A); assay: ITC
Sequence of MBD2 MBD R166A (Q9UBB5 143-220 R166A): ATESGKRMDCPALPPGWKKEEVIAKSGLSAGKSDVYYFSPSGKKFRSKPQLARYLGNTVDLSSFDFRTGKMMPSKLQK

[6] = biological target: MBD2 MBD R188A (Homo sapiens, UniProt Q9UBB5 143-220, R188A); assay: ITC
Sequence of MBD2 MBD R188A (Q9UBB5 143-220 R188A): as the sequence (Q9UBB5 143-220 R166A) above, with A24R, R46A counted along it

[7] = biological target: MBD4 MBD (Homo sapiens, UniProt O95243 55-152); assay: ITC
Sequence of MBD4 MBD (O95243 55-152): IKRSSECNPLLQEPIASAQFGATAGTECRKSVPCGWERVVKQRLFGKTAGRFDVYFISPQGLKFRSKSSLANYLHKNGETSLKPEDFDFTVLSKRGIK

[8] = biological target: T1, MBD1 MBD; assay: ITC

Sequence of MeCP2 MBD (P51608 80-164): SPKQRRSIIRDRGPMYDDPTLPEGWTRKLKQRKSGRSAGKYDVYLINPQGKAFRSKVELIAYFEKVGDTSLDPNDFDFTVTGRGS
Sequence of MBD2 MBD (Q9UBB5 143-220): as the sequence (Q9UBB5 143-220 R166A) above, with A24R counted along it
Sequence of MBD3 MBD (crystallization) (O95983 1-71): as the sequence (O95983 1-71) above

Binder | binding result [1] | Kd [2] [nM] | Kd [3] [nM] | Kd [4] [nM] | binding result [5] | Kd [6] [nM] | Kd [7] [nM] | Kd [8] [nM]
AmCGC (dsDNA, 5mC at position 6 of both strands) DNA 1: GCCAACGCTGGC DNA 2: GCCAGCGTTGGC | binds |  |  |  |  |  |  | 
hmCG (dsDNA, 5hmC at position 6 of both strands) DNA 1: GCCAGCGCTGGC DNA 2: GCCAGCGCTGGC |  | 32000 ± 4000 | 9700 ± 2300 |  |  |  |  | 
GmCGC (dsDNA, 5mC at position 6 of both strands) DNA 1: GCCAGCGCTGGC DNA 2: GCCAGCGCTGGC |  |  |  | 5200 ± 500 | no binding | 5600 ± 500 |  | 
mCG/TG (dsDNA, 5mC at position 6 of strand 1) DNA 1: GTCAACGTTACG DNA 2: CGTAATGTTGAC |  | 1200 ± 200 | 1600 ± 200 | 6500 ± 1200 |  |  | 1500 ± 300 | 2200 ± 300
AmCGT (mCG) (dsDNA, 5mC at position 6 of both strands) DNA 1: GCCAACGTTGGC DNA 2: GCCAACGTTGGC |  | 1200 ± 200 | 900 ± 200 | 5400 ± 1200 |  |  | 400 ± 100 | 1000 ± 100
